Reference: patent US20190055314A1 (ADAGENE, published 2019)
Numbering of substitutions follows the chain as printed. Like-named read-outs stand apart in the source and are kept apart here. One block for each binder: values may come before it.

Experiments:
[1] = molecular target: T1, CD137-hisFc fusion protein (Sino Biological Cat 10041-H03H) (human, UniProt Q07011 24-186); experiment: BLI Octet, Fab
T1 construct: Bought; also called recombinant human CD137 (fused with human Fc and His tag); not shown: His tag and human Fc

[2] = molecular target: T1, CD137-hisFc fusion protein (Sino …); experiment: BLI Octet, Fab; remark: listed apart in the source
[3] = molecular target: T2, human CD137-His6 (Sino Biological #10041-H08H) (human, UniProt Q07011 24-186); experiment: SPR Biacore, IgG
T2 construct: Bought; also called human CD137 protein; not shown: His6 tag

B2: Fab 5299 (Fab, V domains shown)
VH: EVQLVESGGGLVQPGGSLRLSCAASGYSISSGHYWGWIRQAPGKGLEWLALIDWYGDKYYSTSLKSRLTISRDNSKNTLYLQLNSLRAEDTAVYYCARSDYYGSHFDYWGQGTLVTVSS
VL: DIQLTQSPSSLSASVGDRVTITCRASESVDFDGFSFLAWYQQKPGKAPKLLIYDASNLETGVPSRFSGSGSGTDFTLTISSLQPEDFATYYCQQYDTLPRTFGQGTKVEIKR
notes: Fab from E. coli; also called VH11/VL11
Kd [1]: 14 nM | koff [1]: 0.0076 s⁻¹ | kon [1]: 560000 M⁻¹ s⁻¹ | Kd [2]: 13.7 nM | koff [2]: 0.0076 s⁻¹ | kon [2]: 555000 M⁻¹ s⁻¹

B6: AG10086 (antibody, human IgG4 S228P, kappa, V domains shown)
VH: EVQLVESGGGLVQPGGSLRLSCAASGYSISSGHHWAWIRQAPGKGLEWVSVISGSGSSTYYADSVKGRFTISRDNSKNTLYLQLNSLRAEDTAVYYCAREGSDTVLGDWFAYWGQGTLVTVSS
VL: DIQLTQSPSSLSASVGDRVTITCRASQGISSYLAWYQQKPGKAPKLLIYDASNLETGVPSRFSGSGSGTDFTLTISSLQPEDFATYYCQQGYSTWTFGQGTKVEIKR
notes: also called IgG of Fab 5409
Kd [3]: 46 nM | koff [3]: 0.0045 s⁻¹ | kon [3]: 100000 M⁻¹ s⁻¹

B7: Fab 5323 (Fab, V domains shown)
VH: EVQLVESGGGLVQPGGSLRLSCAASGFSLSTSGVGVGWIRQAPGKGLEWIGEIYHSGSTYYSPSLKSRVTISRDNSKNTLYLQLNSLKAEDTAVYYCAREGSDVVTGDWFAYWGQGTLVTVSS
VL: B6 VL with Y32V, N53S, T56S, T94L
notes: Fab from E. coli; also called VH19/VL19
Kd [1]: 10 nM | koff [1]: 0.0081 s⁻¹ | kon [1]: 780000 M⁻¹ s⁻¹ | Kd [2]: 10.4 nM | koff [2]: 0.00812 s⁻¹ | kon [2]: 782000 M⁻¹ s⁻¹

B8: Fab 5359 (Fab, V domains shown)
VH: EVQLVESGGGLVQPGGSLRLSCAASGFSLSTSGVGVGWIRQAPGKGLEWLALIDWADDKYYSPSLKSRLTISRDNSKNTLYLQLNSLRAEDTAVYYCARGGSDAVLGDWFAYWGQGTLVTVSS
VL: B6 VL with S30G, T94I
notes: Fab from E. coli; also called VH27/VL27
Kd [1]: 0.71 nM | koff [1]: 0.00033 s⁻¹ | kon [1]: 460000 M⁻¹ s⁻¹ | Kd [2]: 0.71 nM | koff [2]: 0.00033 s⁻¹ | kon [2]: 464000 M⁻¹ s⁻¹

B9: AG10060 (antibody, human IgG4 S228P, kappa, V domains shown)
VH: B8 VH
VL: B6 VL with S30G, T94I
notes: also called IgG of Fab 5359
Kd [3]: 1.1 nM | koff [3]: 0.00025 s⁻¹ | kon [3]: 220000 M⁻¹ s⁻¹

B10: AG10063 (antibody, human IgG4 S228P, kappa, V domains shown)
VH: B8 VH with S32G, G35A, A56D, D57G, Y60S, P63T, G100E, D103T, L106V, A111D
VL: B6 VL with S31R, L54R, E55A, V58I, T94L
notes: also called IgG of Fab 5413
Kd [3]: 0.99 nM | koff [3]: 0.00039 s⁻¹ | kon [3]: 390000 M⁻¹ s⁻¹

B11: Fab 4074 (Fab, V domains shown)
VH: EVQLVESGGGLVQPGGSLRLSCAASGFSLSTGGVGVSWIRQAPGKGLEWVSSISGSGGTTYYADSVKGRFTISRDNSKNTLYLQLNSLRAEDTAVYYCARDDLYSWYFDVWGQGTLVTVSS
VL: B6 VL with S30G, Y32S, D50A, N53S, E55Q, T56S, S93Y
notes: Fab from E. coli
Kd [1]: 20 nM | koff [1]: 0.00094 s⁻¹ | kon [1]: 48000 M⁻¹ s⁻¹ | Kd [2]: 19.5 nM | koff [2]: 0.000937 s⁻¹ | kon [2]: 48000 M⁻¹ s⁻¹

B13: Fab 5316 (Fab, V domains shown)
VH: B6 VH with H33Y, V51S, S55D, T104A, L106T
VL: B6 VL with I29V, S30G, S31T, N53S, T56S, T94L
notes: Fab from E. coli; also called VH17/VL17
Kd [1]: 11 nM | koff [1]: 0.0016 s⁻¹ | kon [1]: 140000 M⁻¹ s⁻¹ | Kd [2]: 11.4 nM | koff [2]: 0.00161 s⁻¹ | kon [2]: 141000 M⁻¹ s⁻¹

B14: Fab 5300 (Fab, V domains shown)
VH: EVQLVESGGGLVQPGGSLRLSCAASGYTFSNYWIHWVRQAPGKGLEWVSYISGDGDTTYYADSVKGRFTISRDNSKNTLYLQLNSLRAEDTAVYYCAREGSTTVAGDWFAYWGQGTLVTVSS
VL: B6 VL with S30G, Y32F, A34G, N53S, T56S, G91Y, T94L, W95V
notes: Fab from E. coli; also called VH12/VL12
Kd [1]: 15 nM | koff [1]: 0.0091 s⁻¹ | kon [1]: 600000 M⁻¹ s⁻¹ | Kd [2]: 15.3 nM | koff [2]: 0.0091 s⁻¹ | kon [2]: 596000 M⁻¹ s⁻¹

B15: AG10057 (antibody, human IgG4 S228P, kappa, V domains shown)
VH: B8 VH with G35A, G100E
VL: B6 VL with G28D, S31T, Y32F, N53S, T56S, G91A, T94I
notes: also called IgG of Fab 5303
Kd [3]: 7.9 nM | koff [3]: 0.0061 s⁻¹ | kon [3]: 770000 M⁻¹ s⁻¹

B17: AG10125 (antibody, human IgG4 S228P, kappa, V domains shown)
VH: B8 VH with S32G, G35A, D57G, Y60S, P63T, A104T
VL: B6 VL with I29V, S31P, L54R, E55A, V58I
notes: also called IgG of Fab 5314
Kd [3]: 15 nM | koff [3]: 0.0017 s⁻¹ | kon [3]: 110000 M⁻¹ s⁻¹

B18: AG10126 (antibody, human IgG4 S228P, kappa, V domains shown)
VH: B6 VH with H33Y, V51S, S55D, T104A, L106T
VL: B6 VL with I29V, S30G, S31T, N53S, T56S, T94L
notes: also called IgG of Fab 5316
Kd [3]: 14 nM

B19: Fab 5303 (Fab, V domains shown)
VH: B8 VH with G35A, G100E
VL: B6 VL with G28D, S31T, Y32F, N53S, T56S, G91A, T94I
notes: Fab from E. coli; also called VH14/VL14
Kd [1]: 5.1 nM | koff [1]: 0.0051 s⁻¹ | kon [1]: 1e+06 M⁻¹ s⁻¹ | Kd [2]: 5.12 nM | koff [2]: 0.00509 s⁻¹ | kon [2]: 995000 M⁻¹ s⁻¹

B21: AG10084 (antibody, human IgG4 S228P, kappa, V domains shown)
VH: B6 VH with S30T, H34Y, A36N, V51G, S55D, E100G, T104A
VL: B6 VL with G28S
Kd [3]: 43 nM | koff [3]: 0.0028 s⁻¹ | kon [3]: 66000 M⁻¹ s⁻¹

B23: Fab 5310 (Fab, V domains shown)
VH: B8 VH with A56D, A104T
VL: B6 VL with G28S, I29V, S31P, N53S, T56S, T94L
notes: Fab from E. coli; also called VH15/VL15
Kd [1]: 5.7 nM | koff [1]: 0.0047 s⁻¹ | kon [1]: 810000 M⁻¹ s⁻¹ | Kd [2]: 5.72 nM | koff [2]: 0.00465 s⁻¹ | kon [2]: 813000 M⁻¹ s⁻¹

B24: AG10127 (antibody, human IgG4 S228P, kappa, V domains shown)
VH: B8 VH with G35A, A56D, P63T, G100E, D103T, L106A
VL: B6 VL with R24Q, G28D, S30R, S31T, Y32F, L54R, E55A, V58I
notes: also called IgG of Fab 5318
Kd [3]: 9.6 nM | koff [3]: 0.0029 s⁻¹ | kon [3]: 300000 M⁻¹ s⁻¹

Other lines, results leading:

Kd [1]: 16 nM | koff [1]: 0.006 s⁻¹ | kon [1]: 370000 M⁻¹ s⁻¹ | Kd [2]: 16.1 nM | koff [2]: 0.00597 s⁻¹ | kon [2]: 370000 M⁻¹ s⁻¹
B1: Fab 5353 (Fab, V domains shown)
VH: EVQLVESGGGLVQPGGSLRLSCAASGFTFSSYWIHWVRQAPGKGLEWVSVISGDGDTTYYADSVKGRFTISRDNSKNTLYLQLNSLRAEDTAVYYCARSRGLVLDAFDYWGQGTLVTVSS
VL: DIQLTQSPSSLSASVGDRVTITCRASQSVSGRFLAWYQQKPGKAPKLLIYDASSLESGVPSRFSGSGSGTDFTLTISSLQPEDFATYYCQQYDYWPPYTFGQGTKVEIKR
notes: Fab from E. coli; also called VH26/VL26

Kd [1]: 7 nM | koff [1]: 0.0011 s⁻¹ | kon [1]: 150000 M⁻¹ s⁻¹ | Kd [2]: 6.95 nM | koff [2]: 0.00107 s⁻¹ | kon [2]: 154000 M⁻¹ s⁻¹
B3: Fab 4072 (Fab, V domains shown)
VH: EVQLVESGGGLVQPGGSLRLSCAASGFSLSTSGVAVSWIRQAPGKGLEWIGIINPNFGDTNYAQKFQGRVTISRDNSKNTLYLQLNSLRAEDTAVYYCARDEYYGGSYYFDYWGQGTLVTVSS
VL: DIQLTQSPSSLSASVGDRVTITCRASQDVRTAVAWYQQKPGKAPKLLIYDASNLETGVPSRFSGSGSGTDFTLTISSLQPEDFATYYCQQSYDWPPTFGQGTKVEIKR
notes: Fab from E. coli; also called VH2/VL2

Kd [3]: 13 nM | koff [3]: 0.0019 s⁻¹ | kon [3]: 140000 M⁻¹ s⁻¹
B4: AG10054 (antibody, human IgG4 S228P, kappa, V domains shown)
VH: B3 VH
VL: B3 VL
notes: also called IgG of Fab 4072

Kd [1]: 97 nM | koff [1]: 0.055 s⁻¹ | kon [1]: 560000 M⁻¹ s⁻¹ | Kd [2]: 96.7 nM | koff [2]: 0.0545 s⁻¹ | kon [2]: 564000 M⁻¹ s⁻¹
B5: Fab 4217 (Fab, V domains shown)
VH: EVQLVESGGGLVQPGGSLRLSCAASGYSISSGYYWDWIRQAPGKGLEWVSSISGDGDTTYYADSVKGRFTISRDNSKNTLYLQLNSLRAEDTAVYYCAREYYGYGYALDYWGQGTLVTVSS
VL: DIQLTQSPSSLSASVGDRVTITCRASQGISSYLAWYQQKPGKAPKLLIYDASSLESGVPSRFSGSGSGTDFTLTISSLQPEDFATYYCQQYYSTPLTFGQGTKVEIKR
notes: Fab from E. coli; also called VH10/VL10

Kd [1]: 15 nM | koff [1]: 0.0061 s⁻¹ | kon [1]: 410000 M⁻¹ s⁻¹ | Kd [2]: 14.9 nM | koff [2]: 0.00608 s⁻¹ | kon [2]: 407000 M⁻¹ s⁻¹
B12: Fab 5367 (Fab, V domains shown)
VH: EVQLVESGGGLVQPGGSLRLSCAASGFSLSTSGVGVGWIRQAPGKGLEWVSGISGAGDSTYYADSVKGRFTISRDNSKNTLYLQLNSLRAEDTAVYYCAREGSDTVLGDWFAYWGQGTLVTVSS
VL: B6 VL with G28D, S30R, L54R, E55A, V58I, T94I
notes: Fab from E. coli; also called VH31/VL31

Kd [3]: 3.6 nM | koff [3]: 0.00078 s⁻¹ | kon [3]: 220000 M⁻¹ s⁻¹
B16: AG10061 (antibody, human IgG4 S228P, kappa, V domains shown)
VH: B8 VH with G35A, G37A, A56D, Y60R, P63T, G100E, D103T, A104T, L106V, A111D
VL: B6 VL with S30G, S31T, L54R, E55A, V58I, T94L

Kd [3]: 69 nM | koff [3]: 0.014 s⁻¹ | kon [3]: 200000 M⁻¹ s⁻¹
B20: AG10132 (antibody, human IgG4 S228P, kappa, V domains shown)
VH: B6 VH with S30T, H33Y, A36S, V51S, S55Y, S57D, S58T
VL: B6 VL with R24Q, G28D, S30R, S31T, T94I
notes: also called IgG of Fab 5408

Kd [1]: 2.6 nM | koff [1]: 0.0018 s⁻¹ | kon [1]: 700000 M⁻¹ s⁻¹ | Kd [2]: 2.56 nM | koff [2]: 0.00179 s⁻¹ | kon [2]: 701000 M⁻¹ s⁻¹
B22: Fab 5365 (Fab, V domains shown)
VH: B8 VH with S32G, A104T, L106I
VL: B6 VL with G28S, S30G, S93Y, T94L
notes: Fab from E. coli; also called VH30/VL30
